From patent publication US20230293738A1 (Y MABS THERAPEUTICS, published 2023) come the findings set out here.

Test [1] concerns the target T1, human 4Ig-B7H3 (B7H3-4Ig-His) (human, UniProt Q5ZPR3 29-466).
T1 construct: Recombinant His-tagged protein immobilised on a CM5 chip; also called 41g-B7H3; human 4Ig-B7-H3 (dominant isoform); not shown: His tag
T1 sequence: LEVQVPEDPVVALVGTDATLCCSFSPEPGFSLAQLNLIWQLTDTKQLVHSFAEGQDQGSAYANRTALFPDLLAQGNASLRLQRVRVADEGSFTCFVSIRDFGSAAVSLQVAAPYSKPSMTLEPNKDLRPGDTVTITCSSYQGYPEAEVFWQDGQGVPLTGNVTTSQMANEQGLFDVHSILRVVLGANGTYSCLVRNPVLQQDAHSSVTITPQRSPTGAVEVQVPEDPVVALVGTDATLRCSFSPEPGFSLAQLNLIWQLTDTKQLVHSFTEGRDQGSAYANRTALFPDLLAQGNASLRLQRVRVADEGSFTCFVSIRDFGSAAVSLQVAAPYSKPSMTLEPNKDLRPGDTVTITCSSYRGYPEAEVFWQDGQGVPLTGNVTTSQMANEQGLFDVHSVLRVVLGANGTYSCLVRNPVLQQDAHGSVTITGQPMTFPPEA
The test can be described thus: SPR. The protocol:
(§1) Both human B7H3 41g and 21g proteins were dissolved in PBS (Phosphate-Buffered Saline) to make 0.1 mg/ml stock solution and stored in −80° C. B7-H3 proteins were immobilized onto the CM5 sensor chip using Amine Coupling Kit. Both proteins were diluted to 10 ug/ml with 10 mM Sodium acetate, pH 5.0. […] A blank immobilized surface was used as a control
(§2) Binding Assays: [0143] 1. Antibodies were diluted in HBS-EP buffer (10 mM HEPES, 150 mM NaCl, 3 mM EDTA, 0.05% Surfactant P20, pH 7.4) at varying concentrations (25-50-100-200-400 nM) prior to analysis. […] 2. Samples (60 ul) were injected over the sensor surface at a flow rate of 30 ul/min over 2 min. [0145] 3. Following completion of the association phase, dissociation was monitored in HBS-EP buffer for 10 min at the same flow rate. […] 4. At the end of each cycle, the surface was regenerated using 10 mM NaOH at a flow rate of 50 ul/min over 2×15 sec.
Background: SPR reads the build-up and loss of mass on a sensor chip optically.

Test [2] concerns the target T2, human 2Ig-B7H3 (B7H3-2Ig-His) (human, UniProt Q5ZPR3 29-466).
T2 construct: Recombinant His-tagged protein immobilised on a CM5 chip; also called 21g-B7H3; B7H3-21g-His; not shown: His tag
T2 sequence: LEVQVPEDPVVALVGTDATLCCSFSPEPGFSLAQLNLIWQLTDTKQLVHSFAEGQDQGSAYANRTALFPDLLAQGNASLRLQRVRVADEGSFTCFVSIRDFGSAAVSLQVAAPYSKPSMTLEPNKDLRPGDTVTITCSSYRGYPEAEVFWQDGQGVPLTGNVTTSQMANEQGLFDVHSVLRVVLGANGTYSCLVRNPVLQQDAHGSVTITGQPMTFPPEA
The test can be described thus: SPR. The protocol: as §1, §2

The target in test [3] is T2, human 2Ig-B7H3 (B7H3-2Ig-His). The test can be described thus: SPR, Biacore T200, 2Ig-B7H3-His on CM5 chip, 1:1 fit. The protocol: as §1, §2
The data were analyzed by the 1:1 fitting model and default parameter setting for the rate constants using the Biacore T200 Evaluation Software, and the apparent association on rate constant (kon, ka), dissociation off rate constant (koff, kd) and equilibrium dissociation constant (KD=kd/ka) were calculated.

Test [4] concerns the target T1, human 4Ig-B7H3 (B7H3-4Ig-His). The test can be described thus: SPR, Biacore T200, 4Ig-B7H3-His on CM5 chip, 1:1 fit. The protocol: as §1, §2
Test [5] deals with T2, human 2Ig-B7H3 (B7H3-2Ig-His). The test can be described thus: SPR, Biacore T200, 2Ig-B7H3-His on CM5 chip, 1:1 fit; CHX-A''-DTPA conjugate, CAR 6.1, unlabeled.
Test [6] has the same target. The test can be described thus: SPR, Biacore T200, 2Ig-B7H3-His on CM5 chip, 1:1 fit; DOTA conjugate, CAR 11.7, unlabeled.

As a reminder, the Kd is the concentration at which binding is half-saturated. A higher Kd goes with lower affinity.

B1: 8H9 antibody conjugated with p-SCN-Bn-CHX-A″-DTPA, CAR 6.1 (antibody, mouse IgG1, kappa, V domains shown)
VH: QVQLQQSGAELVKPGASVKLSCKASGYTFTNYDINWVRQRPEQGLEWIGWIFPGDGSTQYNEKFKGKATLTTDTSSSTAYMQLSRLTSEDSAVYFCARQTTATWFAYWGQGTLVTVSA
VL: DIVMTQSPATLSVTPGDRVSLSCRASQSISDYLHWYQQKSHESPRLLIKYASQSISGIPSRFSGSGSGSDFTLSINSVEPEDVGVYYCQNGHSFPLTFGAGTKLELKR
modifications: p-SCN-Bn-CHX-A″-DTPA conjugated, CAR 6.1 per antibody; sites not stated
notes: Chelator conjugate, not metal-labelled
With B1, the Kd was 53.8 nM in test [1], 53.8 nM in test [4] and 24.3 nM in test [5]. In addition, the values for the t ½ in test [1], in test [2] and in test [4] were 12.9 min, 23.7 min and 12.9 min, respectively. Besides, the “T ½” value in test [3] was 23.7 min.

B2: 8H9 antibody conjugated with p-SCN-Bn-DOTA, CAR 11.7 (antibody, mouse IgG1, kappa, V domains shown)
VH: QVQLQQSGAELVKPGASVKLSCKASGYTFTNYDINWVRQRPEQGLEWIGWIFPGDGSTQYNEKFKGKATLTTDTSSSTAYMQLSRLTSEDSAVYFCARQTTATWFAYWGQGTLVTVSA
VL: DIVMTQSPATLSVTPGDRVSLSCRASQSISDYLHWYQQKSHESPRLLIKYASQSISGIPSRFSGSGSGSDFTLSINSVEPEDVGVYYCQNGHSFPLTFGAGTKLELKR
modifications: p-SCN-Bn-DOTA conjugated, CAR 11.7 per antibody; sites not stated
notes: as for B1
Take B2: the “T ½” value in test [3] was 223 min. Besides, the Kd is 18.9 nM in test [4] and 2.99 nM in test [6]. For the same molecule, the “t ½” value in test [4] was found to be 45.3 min.
